Data: patent publication US20180207202A1, “METHODS FOR MOBILIZING HEMATOPOIETIC STEM CELLS” (Ohio State Innovation Foundation, priority 2013, published 2018)
Like-named read-outs stand apart in the source and are kept apart here.

B1: FLT3L: recombinant human FLT3L (Celldex Therapeutics or Miltenyi Biotec), stem cell-specific growth factor (protein, UniProt P49771 27-235, looked up)
Fms-related tyrosine kinase 3 …: TQDCSFQHSPISSDFAVKIRELSDYLLQDYPVTVASNLQDEELCGGLWRLVLAQRWMERLKTVAGSKMQGLLERVNTEIHFVTKCAFQPPPSCLRFVQTNISRLLQETSEQLVALKPWITRQNFSRCLELQCQPDSSTLPPPWSPRPLEATAPTAPQPPLLLLLLLPVGLLLLAAAWCLHWQRTRRRTPRPGEQVPPVPSPQDLLLVEH
B2: G-CSF: Granulocyte colony stimulating factor (Amgen), routinely used to mobilize PBSC (protein, UniProt P09919 31-207, looked up)
Granulocyte …: TPLGPASSLPQSFLLKCLEQVRKIQGDGAALQEKLVSECATYKLCHPEELVLLGHSLGIPWAPLSSCPSQALQLAGCLSQLHSGLFLYQGLLQALEGISPELGPTLDTLQLDVADFATTIWQQMEELGMAPALQPTQGAMPAFASAFQRRAGGVLVASHLQSFLEVSYRVLRHLAQP

What was measured:
CD8+ T cells = CD8+ T cells in mobilized peripheral blood, flow cytometry (Example 3); assay type: in vivo, mice (WT B6D2F1/J); conditions: group of three mice
Method: It is known that donor CD8^+ T cells are mainly responsible for GVHD in HSCT, and G-CSF is considered a toxic mobilizer as it also induces GVHD.
In FIG. 3, WT B6D2F1/J mice were treated with FLT3L or G-CSF for 10 or 5 days, respectively, followed by a one-hour Plerixafor treatment. PBS served as a control. Peripheral blood cells were assayed by flow cytometry to examine percentages of CD8^+ T cells ([…]) in total white blood cells. Data were summarized from a group of three mice.

[1] = system: HSCs (Lin-Sca-1+c-Kit+, LSK cells); experiment: LSK cell mobilization into peripheral blood, flow cytometry (Example 6); assay type: in vivo, C57BL/6 mice
Method: (§1) C57BL/6 mice were injected intraperitoneally (i.p.) either (i) with recombinant human FLT3L (Celldex Therapeutics or Miltenyi Biotec) ([…]) for 10 consecutive days or (ii) with G-CSF (Amgen) ([…]) for 5 consecutive days. The capacity of human FLT3L to bind murine FLT3L receptors and Plerixafor to block murine Cxcr4 receptor was previously reported. (See, e.g., Lyman et al., 1994; Brawel et al., 1996; Gerlach et al., 2001; Broxmeyer et al., 2005). Twelve hours after the last dose of either FLT3L or G-CSF, the mice were injected i.p. with either PBS or Plerixafor (AMD3100, Sigma) (5 mg/kg). The mice were euthanized one hour later.
As described by Ferraro et al., 2011, peripheral blood was collected retro-orbitally while the mice were under deep anesthesia. Briefly, the mice were […] by an i.p. injection with 100 μL of a mixture of ketamine (54.3 mg/mL) and xylazine (9.1 mg/mL). Blood was collected from the retro-orbital venous plexus through a microcapillary heparinized tube. The mice were then euthanized while still deeply anesthetized. RBCs were depleted by RBC lysis buffer. The remaining cells were subjected to flow cytometric analysis or transplantation.
The mAbs reactive with murine cell antigens were purchased from BD Biosciences or eBioscience. Cell preparation and analysis were performed as described by Yu et al., 2010. […]

[2] = system: Lin-c-kit+Sca-1+ HSCs and Lin-c-kit+Sca-1- progenitor cells; experiment: Mobilization of HSCs and committed progenitors into peripheral blood, flow cytometry (Example 1); assay type: in vivo, mice (WT B6D2F1/J)
Text: Since HSCs are important for long-term reconstitution and progenitor cells are critical for short-term rapid reconstitution in transplantation, whether a combination of FLT3L and Plerixafor can mobilize both types of cells was investigated. In mice, Lin^−c-kit^+Sca-1^+ cells are enriched HSCs and Lin^−c-kit^+Sca-1^− cells are more committed progenitor cells. […] Furthermore, the mobilization effect of the FLT3L and Plerixafor combination was much stronger than the G-CSF and Plerixafor combination, the strongest mobilizer currently used clinically (5.9% vs. 2%, 10.3% vs. 1%, n=3, p<0.01, respectively). The flow results were validated by another method, stem cell colony formation assay.
In FIG. 1, WT B6D2F1/J mice were treated with FLT3L or G-CSF for 10 or 5 days, respectively, followed by a one-hour Plerixafor treatment. PBS served as a control. On the last day of the treatment, mice were sacrificed and peripheral blood cells were subjected to flow cytometry to determine percentages (among total WBC) of stem-cell enriched (Lin^−CD117^+Sca-1^+) (FIG. 1A) or more committed precursor cells ([…]) (FIG. 1B).

NK cells (NK1.1+CD3-) = experiment: NK cell expansion in peripheral blood and spleen, flow cytometry (Example 2); assay type: in vivo, mice (WT C57BL/6 or B6D2F1/J)
Text: […] PBS; gated on total white blood cells).
In FIG. […] PBS served as a control. Peripheral blood cells were counted using trypan blue and assayed by flow cytometry to examine percentages of NK cells (NK1.1^+CD3^−).

[3] = system: lethally irradiated syngeneic mouse model; experiment: Survival of lethally irradiated syngeneic mice given mobilized peripheral blood cells (Example 5); assay type: in vivo, mice (C57BL/6); conditions: 0.2 million mobilized PB cells per lethally irradiated recipient
Method: Peripheral blood (PB) mobilized by FLT3L and Plerixafor prolongs mouse survival in a lethally irradiated syngeneic mouse model and a fully mismatched acute GVHD model. To test whether the mobilized stem cells and other immune cells can improve transplantation, mobilized cells were administered to lethally irradiated (IR) syngeneic mice at the dose of 0.2 million PB cells for each recipient mouse.

[4] = system: fully mismatched acute GVHD model; experiment: Survival in fully mismatched acute GVHD model given mobilized peripheral blood cells (Example 5); assay type: in vivo, mice (C57BL/6 to BALB/c); conditions: 0.8 million mobilized cells per mouse
[5] = system: NK cells, Tregs, DCs, monocytes, neutrophils; experiment: Immune cell subsets in mobilized peripheral blood, flow cytometry (Example 6); assay type: in vivo, C57BL/6 mice
Method: as §1
The mAbs reactive with murine cell antigens were purchased from BD Biosciences or eBioscience. Cell preparation and analysis were performed as described by Yu et al., 2010. The immune subsets were gated as CD3^−NK1.1^+ for natural killer (NK) cells, CD3^+CD25^+Foxp3^+ for regulatory T cells (Tregs), B220^−CD11c^+CD11b^− for conventional dendritic cells (cDCs), and CD11b^−CD11c^lowPDCA1^+SiglecH^+ for plasmacytoid DCs (pDCs).
In FIG. 12, the constitution of immune cell subsets in mobilized peripheral blood was determined by flow cytometric analysis with corresponding antibodies (B cell: CD3^−CD19^+, T cell: CD3^+NK1.1^−; NK cell: CD3^−NK1.1^+; Neutrophil: Gr1^highCD11b^+; Monocyte: Gr1^medCD11b^+; DC: CD11c^+). […]

[6] = system: lethally irradiated C57BL/6 mice; experiment: Syngeneic transplantation of mobilized grafts into lethally irradiated mice (Example 6); assay type: in vivo; conditions: 2×10^5 mobilized cells per recipient
Method: For syngeneic transplantation, C57BL/6 mice were subjected to 9 Gy of irradiation delivered in 2 fractions separated by 4 hours using RS 2000 X-Ray Q2 Irradiator (Rad Source Technologies, Suwanee GP). Four hours later, each mouse was transplanted via the tail vein with 2×10^5 mobilized RBC-depleted peripheral blood cells from C57BL/6 mice. […] The lethally irradiated mice were housed in a sterile environment and baytril antibiotic was provided in the drinking water to prevent infection-caused mortality. After transplantation, mice were monitored daily and the phenotypes of the mice were recorded.
(§2) Irradiated mice without any cell infusion (IR Ctl) served as a control group. A total of 2×10^5 (A) or 8×10^5 (B) peripheral blood cells were transplanted for each recipient. Each group contains 5 to 8 mice. A log-rank test was used to compare survival curves.

[7] = system: lethally irradiated BALB/c mice; experiment: Allogeneic transplantation of mobilized grafts into lethally irradiated mice (Example 6); assay type: in vivo, BALB/c mice (grafts from C57BL/6); conditions: 8×10^5 mobilized cells per recipient
Method: For allogeneic transplantation, each recipient BALB/c mouse was subjected to a lethal irradiation (delivered in 2 fractions separated by 4 hours using RS 2000 X-Ray Q2 Irradiator) and was then injected with 8×10^5 mobilized RBC depleted peripheral blood cells isolated from C57BL/6 mice. […] Considering the likely graft rejection and GVHD complication in the allogeneic model, a 4-fold higher number of cells (i.e., 8×10^5 donor cells isolated from C57BL/6 mice) were administered intravenously (i.v.) into each BALB/c recipient for allogeneic transplants. The lethally irradiated mice were housed in a sterile environment and baytril antibiotic was provided in the drinking water to prevent infection-caused mortality. After transplantation, mice were monitored daily and the phenotypes of the mice were recorded.
as §2
In FIG. 16, lethally irradiated BALB/c mice were transplanted with grafts from C57BL/6 mice that were mobilized by the indicated regimens. At four months post-transplantation, the surviving mice were sacrificed.

[8] = system: peripheral blood stem cells; conditions: cited from earlier work
[9] = system: mice syngeneically infused; conditions: cited from earlier work

| Molecule | proportion of CD8+ T cells in total white blood cells (CD8+ T cells) | number of LSK cells in blood compared with PBS-treated mice [1] | effect on progenitor cells and HSCs ([2]; FLT3L administration for 5 days) | Lin-c-kit+Sca-1+ HSC, percentage among total WBC ([2]; peripheral blood, FLT3L administration of 7 days and 10 days, printed as 0.13% vs. 1.8%, n=3, p<0.01) | Lin-c-kit+Sca-1- progenitor cells, percentage among total WBC ([2]; peripheral blood, FLT3L administration of 7 days and 10 days, printed as 0.47% vs. 1.8%, n=3, p<0.01) | NK cells in peripheral blood and spleen (NK cells (NK1.1+CD3-); FLT3L alone for 14 days) | NK cell content compared with the combination of GCSF and Plerixafor (NK cells (NK1.1+CD3-); gated on total white blood cells) | protection from death [3] | survival rate two months (day 60) after transplantation [4] | NK (CD3-NK1.1+) cell percentages [5] | mice alive four months after transplantation [6] | survival rate at day 21 [6] | mice surviving to 4 months post-transplantation [7] | autologous transplant patients that respond poorly ([8]; G-CSF or G-CSF plus chemotherapy, varied depending on disease types and age) | normal donors that mobilize stem cells poorly ([8]; in response to G-CSF) | mice survived ([9]; 2.5×10^5 cells mobilized by G-CSF transplanted) | mice survived ([9]; syngeneically infused with 1×10^6 peripheral nucleated cells mobilized by G-CSF) |
| --- | --- | --- | --- | --- | --- | --- | --- | --- | --- | --- | --- | --- | --- | --- | --- | --- | --- |
| c1cc(CN2CCCNCCNCCCNCC2)ccc1CN1CCCNCCNCCCNCC1 [Plerixafor, reference compound] | moderately gave rise to a proportional increase | moderate increase | – | – | – | – | – | – | – | – | – | – | – | – | – | – | – |
| B1 | dramatically decreased | significantly more LSK cells | increased only Lin-c-kit+Sca-1-progenitor cells but not HSCs | 1.8% | 1.8% | dramatically increased | much higher NK cell content | fully protect mice from death | 60% | significantly increased | approximately 70% | 100% | 66% | – | – | – | – |
| B2 | – | – | – | – | – | – | – | – | – | – | – | – | – | 10-30% | 5-10% | around 17% | about 90% |
